These results are taken from paper PMC7910587.

The target of the experiment is IQGAP1 (Ras GTPase-activating-like protein IQGAP1) (human (endogenous in INT 407)) (UniProt P46940). The experiment in a line: co-IP; INT 407 cells non-infected or infected for 45 min with C. jejuni wild-type strain (F38011 or 81-176) or the ∆ciaD mutant; lysis in IP buffer with 50 mM NaCl; IP with mouse anti-IQGAP1 and Protein A/G agarose; immunoblots for RacGAP1, Rac1, Erk 1/2.
UniProt P46940, sequence (P46940 whole entry): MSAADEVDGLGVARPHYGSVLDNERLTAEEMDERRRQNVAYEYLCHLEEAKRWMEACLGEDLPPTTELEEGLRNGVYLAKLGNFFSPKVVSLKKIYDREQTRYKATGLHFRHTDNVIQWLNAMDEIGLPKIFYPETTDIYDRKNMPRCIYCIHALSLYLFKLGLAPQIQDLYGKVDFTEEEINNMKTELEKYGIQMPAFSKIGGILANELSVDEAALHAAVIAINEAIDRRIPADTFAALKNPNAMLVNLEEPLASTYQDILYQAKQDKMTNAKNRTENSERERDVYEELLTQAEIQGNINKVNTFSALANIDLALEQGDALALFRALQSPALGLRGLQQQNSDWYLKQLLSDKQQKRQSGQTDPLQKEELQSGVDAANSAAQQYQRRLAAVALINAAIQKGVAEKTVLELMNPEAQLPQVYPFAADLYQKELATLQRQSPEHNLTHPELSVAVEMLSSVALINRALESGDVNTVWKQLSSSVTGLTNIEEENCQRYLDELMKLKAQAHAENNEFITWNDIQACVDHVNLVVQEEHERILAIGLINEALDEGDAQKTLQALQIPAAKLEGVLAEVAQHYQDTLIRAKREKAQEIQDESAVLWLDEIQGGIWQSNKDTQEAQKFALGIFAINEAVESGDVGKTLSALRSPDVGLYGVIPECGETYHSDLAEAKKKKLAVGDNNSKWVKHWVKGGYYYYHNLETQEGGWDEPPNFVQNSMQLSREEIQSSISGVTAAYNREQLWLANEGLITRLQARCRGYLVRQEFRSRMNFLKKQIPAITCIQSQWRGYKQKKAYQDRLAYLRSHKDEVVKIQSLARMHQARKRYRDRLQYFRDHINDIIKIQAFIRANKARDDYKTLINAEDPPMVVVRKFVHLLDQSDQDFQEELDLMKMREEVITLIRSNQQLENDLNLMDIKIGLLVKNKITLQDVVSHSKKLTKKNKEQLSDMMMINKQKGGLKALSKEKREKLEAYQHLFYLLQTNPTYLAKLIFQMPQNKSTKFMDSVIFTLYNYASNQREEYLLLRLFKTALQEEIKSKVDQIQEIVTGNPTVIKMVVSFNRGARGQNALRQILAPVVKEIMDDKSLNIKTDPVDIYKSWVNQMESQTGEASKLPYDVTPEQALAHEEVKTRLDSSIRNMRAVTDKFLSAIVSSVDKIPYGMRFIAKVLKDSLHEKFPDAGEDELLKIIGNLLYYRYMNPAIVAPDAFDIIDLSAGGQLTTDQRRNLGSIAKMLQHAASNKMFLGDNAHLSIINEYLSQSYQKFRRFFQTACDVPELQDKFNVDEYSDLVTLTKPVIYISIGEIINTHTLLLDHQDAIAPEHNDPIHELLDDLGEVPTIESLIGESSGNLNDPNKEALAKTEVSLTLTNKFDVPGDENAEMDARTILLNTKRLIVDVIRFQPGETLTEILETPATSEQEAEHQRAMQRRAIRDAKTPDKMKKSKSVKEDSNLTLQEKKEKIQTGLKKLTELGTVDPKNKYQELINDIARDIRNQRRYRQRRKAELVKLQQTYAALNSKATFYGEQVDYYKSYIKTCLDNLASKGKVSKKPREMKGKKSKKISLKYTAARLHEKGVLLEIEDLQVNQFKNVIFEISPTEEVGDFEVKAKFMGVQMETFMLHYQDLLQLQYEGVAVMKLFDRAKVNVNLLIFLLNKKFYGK

Regarding “CiaD effector protein of the C. jejuni F38011 wild-type strain (from UniProt Q0PAA2 1-163) (natural protein)”, the reduction of RacGAP1 in the IQGAP1 complex on infection with the wild-type strain amounted to 50%.
